Data on twelve molecules can be found in patent US20170022281A1 (AbbVie / Abbott, published 2017).

One assay concerns the target T1, human PRLR on cells (human, UniProt P16471 25-622).
T1 sequence: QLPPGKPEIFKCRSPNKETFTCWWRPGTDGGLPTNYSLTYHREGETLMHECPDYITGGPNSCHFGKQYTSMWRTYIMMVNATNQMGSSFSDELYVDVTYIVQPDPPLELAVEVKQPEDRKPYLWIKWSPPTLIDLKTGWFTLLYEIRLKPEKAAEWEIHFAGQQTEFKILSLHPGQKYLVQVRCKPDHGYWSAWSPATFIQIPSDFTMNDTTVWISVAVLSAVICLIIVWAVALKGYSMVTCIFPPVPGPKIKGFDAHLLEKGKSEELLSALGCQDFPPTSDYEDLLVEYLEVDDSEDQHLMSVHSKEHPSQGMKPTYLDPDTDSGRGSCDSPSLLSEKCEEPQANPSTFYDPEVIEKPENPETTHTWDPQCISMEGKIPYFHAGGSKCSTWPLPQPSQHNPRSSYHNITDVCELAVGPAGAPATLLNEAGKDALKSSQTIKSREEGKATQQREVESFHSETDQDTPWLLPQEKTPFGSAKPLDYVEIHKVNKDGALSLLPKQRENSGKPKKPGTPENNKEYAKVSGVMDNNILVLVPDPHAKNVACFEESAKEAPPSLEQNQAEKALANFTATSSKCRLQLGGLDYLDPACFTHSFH
The assay is described as follows: cell-based or functional assay.

Assay [1] concerns the target T2, cyno PRLR (Biacore antigen) (cyno, UniProt A0A2K5WXK1 25-234).
T2 construct: also called cyPRLR
T2 sequence: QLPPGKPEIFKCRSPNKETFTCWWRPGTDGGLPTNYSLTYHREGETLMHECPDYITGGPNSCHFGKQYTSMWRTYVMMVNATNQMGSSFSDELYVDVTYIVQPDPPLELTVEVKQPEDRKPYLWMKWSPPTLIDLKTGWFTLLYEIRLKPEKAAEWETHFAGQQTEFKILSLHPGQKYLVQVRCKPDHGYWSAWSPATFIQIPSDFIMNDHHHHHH
The assay can be described thus: SPR Biacore. A digest of the protocol: (§1)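 Association rate, dissociation rate and dissociation constant were measured by surface plasmon resonance on a Biacore instrument. PRLR antigen was tested at 600 nM, 66.67 nM and 7.41 nM, a 3-point, 9-fold dilution series. Constants came from a 1:1 binding model fit (local Rmax, mass-transport term included) in Biacore T200 Evaluation Software.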

Assay [2] has as its target T3, human PRLR (Biacore antigen) (human, UniProt P16471 25-234, limits assumed).
T3 construct: The construct injected over captured antibody is not described (a soluble form is likely); also called huPRLR
T3 sequence: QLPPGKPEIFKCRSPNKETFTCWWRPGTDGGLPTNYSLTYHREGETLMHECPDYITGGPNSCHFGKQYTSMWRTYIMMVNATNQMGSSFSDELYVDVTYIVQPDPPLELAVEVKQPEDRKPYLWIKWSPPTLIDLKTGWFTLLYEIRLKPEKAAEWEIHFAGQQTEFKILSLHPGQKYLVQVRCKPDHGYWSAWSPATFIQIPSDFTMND
The assay can be described thus: SPR Biacore. A digest of the protocol:
as §1

Assay [3] addresses cyno PRLR on Baf3-cyPRLR cells (cyno). The assay is described as follows: cell-based or functional assay.

B1: Ab22 (antibody, human IgG1, kappa, V domains shown)
VH: EVQLVQSGAEVKKPGSSVKVSCKASGGTFTTYWMHWVRQAPGQGLEWIGEIDPSDSYSNYAQKFQGRVTITVDKSTSTAYMELSSLRSEDTAVYYCARNGGLGPAWFSYWGQGTLVTVSS
VL: DIQMTQSPSSVSASVGDRVTITCKASQYVGTAVAWYQQKPGKAPKLLIYSASNRYTGVPSRFSGSGSGTDFTLTISSLQPEDFATYYCQQYSSYPWTFGGGTKVEIKR
For B1, in the assay with human PRLR on cells, the “Baf3-hPRLR proliferation IC50” value was more than 30 µg/mL.

B2: Ab25 (antibody, human IgG1, kappa, V domains shown)
VH: EVQLVQSGAEVKKPGSSVKVSCKASGGTFTTYWMHWVRQAPGQGLEWIGEIDPSDSYSNYAQKFQGRVTITVDKSTSTAYMELSSLRSEDTAVYYCARNGGLGPAWFSYWGQGTLVTVSS
VL: EIVMTQSPATLSVSPGERATLSCKASQYVGTAVAWYQQKPGQSPRLLIYSASNRYTGVPARFSDSGSGTEFTLTISSLQSEDFAVYFCQQYSSYPWTFGGGTKVEIKR
On to B2, for which, in the assay with human PRLR on cells, the “Baf3-hPRLR proliferation IC50” value was more than 30 µg/mL.

B3: Ab23 (antibody, human IgG1, kappa, V domains shown)
VH: EVQLVQSGAEVKKPGSSVKVSCKASGGTFTTYWMHWVRQAPGQGLEWIGEIDPSDSYSNYAQKFQGRVTITVDKSTSTAYMELSSLRSEDTAVYYCARNGGLGPAWFSYWGQGTLVTVSS
VL: DIQMTQSPSSVSASVGDRVTITCKASQYVGTAVAWYQQKPGKSPKLLIYSASNRYTGVPSRFSDSGSGTDFTLTISSLQPEDFATYFCQQYSSYPWTFGGGTKVEIKR
As for B3, the “Baf3-hPRLR proliferation IC50” value with human PRLR on cells is more than 30 µg/mL.

B4: Ab24 (antibody, human IgG1, kappa, V domains shown)
VH: EVQLVQSGAEVKKPGSSVKVSCKASGGTFTTYWMHWVRQAPGQGLEWIGEIDPSDSYSNYAQKFQGRVTITVDKSTSTAYMELSSLRSEDTAVYYCARNGGLGPAWFSYWGQGTLVTVSS
VL: EIVMTQSPATLSVSPGERATLSCKASQYVGTAVAWYQQKPGQAPRLLIYSASNRYTGIPARFSGSGSGTEFTLTISSLQSEDFAVYYCQQYSSYPWTFGGGTKVEIKR
For the molecule B4, the “Baf3-hPRLR proliferation IC50” value with human PRLR on cells was more than 30 µg/mL.

B5: Ab53 (antibody, human IgG1, kappa, V domains shown)
VH: EVQLVQSGAEVKKPGSSVKVSCKASGYTFTSYWIHWVRQAPGQGLEWIGEIDPSDSYTNYNQKFKGRVTITVDKSTSTAYMELSSLRSEDTAVYYCARSFFTNWFAYWGQGTLVTVSS
VL: DVVMTQTPLSLSVTPGQPASISCRSSQSLVHSNGNTYLHWYLQKPGQSPQLLIYKVSNRFSGVPDRFSGSGSGTDFTLKISRVEAEDVGVYFCSQSTHVPFTFGGGTKVEIKR
notes: humanized from Ab7 (back mutations on Ab36); G1; also called Ab4 HC.1b.2 and Ab4 LC.1a
As for B5, in assay [1], binding was put at a Kd of 7.8 nM, the koff was determined as 0.00089 s⁻¹ and the kon is 110000 M⁻¹ s⁻¹. Moreover, in assay [2], the affinity, expressed as Kd, was 8.5 nM; the koff was determined as 0.001 s⁻¹; the on-rate constant (kon) amounted to 120000 M⁻¹ s⁻¹. In the assay with human PRLR on cells, the “Baf3-hPRLR proliferation IC50” value was found to be 1.03 µg/mL.

B6: Ab42 (antibody, human IgG1, kappa, V domains shown)
VH: EVQLVQSGAEVKKPGSSVKVSCKASGGTFTSYWIHWVRQAPGQGLEWIGEIDPSDSYTNYAQKFQGRVTITVDKSTSTAYMELSSLRSEDTAVYYCARSFFTNWFAYWGQGTLVTVSS
VL: DVVMTQTPLSLSVTPGQPASISCRSSQSLVHSNGNTYLHWYLQKPGQSPQLLIYKVSNRFSGVPDRFSGSGSGTDFTLKISRVEAEDVGVYFCSQSTHVPFTFGGGTKVEIKR
For the molecule B6, the “Baf3-hPRLR proliferation IC50” value with human PRLR on cells stood at 4.76 µg/mL.

B7: Ab32 (antibody, human IgG1, kappa)
heavy: not shown
light: DIVMTQTPLSLSVTPGQPASISCRSSQRLVHSNGNTYLHWYLQKPGQSPQLLIYKVSNRFSGVPDRFSGSGSGTDFTLKISRVEAEDVGVYYCSQSTHVPWTFGGGTKVEIKRTVAAPSVFIFPPSDEQLKSGTASVVCLLNNFYPREAKVQWKVDNALQSGNSQESVTEQDSKDSTYSLSSTLTLSKADYEKHKVYACEVTHQGLSSPVTKSFNRGEC
With B7, the “Baf3-hPRLR proliferation IC50” value with human PRLR on cells was more than 30 µg/mL.

B8: Ab34 (antibody, human IgG1, kappa)
heavy: not shown
light: DVVMTQTPLSLSVTPGQPASISCRSSQRLVHSNGNTYLHWYLQKPGQSPQLLIYKVSNRFSGVPDRFSGSGSGTDFTLKISRVEAEDVGVYYCSQSTHVPWTFGGGTKVEIKRTVAAPSVFIFPPSDEQLKSGTASVVCLLNNFYPREAKVQWKVDNALQSGNSQESVTEQDSKDSTYSLSSTLTLSKADYEKHKVYACEVTHQGLSSPVTKSFNRGEC
B8: the “Baf3-hPRLR proliferation IC50” value with human PRLR on cells is more than 30 µg/mL.

B9: Ab41 (antibody, human IgG1, kappa)
heavy: not shown
light: DIVMTQTPLSLSVTPGQPASISCRSSQSLVHSNGNTYLHWYLQKPGQSPQLLIYKVSNRFSGVPDRFSGSGSGTDFTLKISRVEAEDVGVYYCSQSTHVPFTFGGGTKVEIKRTVAAPSVFIFPPSDEQLKSGTASVVCLLNNFYPREAKVQWKVDNALQSGNSQESVTEQDSKDSTYSLSSTLTLSKADYEKHKVYACEVTHQGLSSPVTKSFNRGEC
On to B9, for which, in the assay with human PRLR on cells, the “Baf3-hPRLR proliferation IC50” value was found to be 4.38 µg/mL.

B10: Ab43 (antibody, human IgG1, kappa)
heavy: not shown
light: DVVMTQTPLSLSVTPGQPASISCRSSQSLVHSNGNTYLHWYLQKPGQSPQLLIYKVSNRFSGVPDRFSGSGSGTDFTLKISRVEAEDVGVYYCSQSTHVPFTFGGGTKVEIKRTVAAPSVFIFPPSDEQLKSGTASVVCLLNNFYPREAKVQWKVDNALQSGNSQESVTEQDSKDSTYSLSSTLTLSKADYEKHKVYACEVTHQGLSSPVTKSFNRGEC
As to B10, the “Baf3-hPRLR proliferation IC50” value in the assay with human PRLR on cells was determined as 6.75 µg/mL.

B11: Ab33 (antibody, human IgG1, kappa, V domains shown)
VH: EVQLVQSGAEVKKPGSSVKVSCKASGGTFTSFWMHWVRQAPGQGLEWIGVIDPSDTYTNYAQKFQGRVTITVDESTSTAYMELSSLRSEDTAVYYCARGDYSNWFTYWGQGTLVTVSS
VL: DVVMTQTPLSLSVTPGQPASISCRSSQRLVHSNGNTYLHWYLQKPGQSPQLLIYKVSNRFSGVPDRFSGSGSGTDFTLKISRVEAEDVGVYFCSQSTHVPWTFGGGTKVEIKR
Consider B11, for which the “Baf3-hPRLR proliferation IC50” value with human PRLR on cells is more than 30 µg/mL.

B12: chAb9 (antibody, human IgG1, kappa, V domains shown)
VH: EVQLQQSGPELVRPGASVKISCKASGYSFTDYNMHWVKQSHGKSLEWIGYIYPYNGGAGYNQKFKSKATMNVGISSSTAYMELRSLTSEDSAVYYCARGDGNYVGDMDYWGQGTSVTVSS
VL: DIQMTQSPASLSASVGETVTITCRASENIYSYLAWYQQKQGKSPQLLVYNAKTLAEGVPSRFSGSGSGTQFSLKINSLQPEDFGSYYCQHHSGTPFTFGSGTKLEIKT
Turning to B12, in the assay with human PRLR on cells, the “Baf3-hPRLR proliferation IC50” value was 0.2 µg/mL. Further, the “Baf3-cyPRLR proliferation IC50” value in assay [3] is 10.4 µg/mL.

The Kd is a measure of binding affinity in units of concentration. By koff is commonly meant a measure of how fast the partners let go of each other. Read a low koff as slow dissociation. Broadly, the kon is the rate constant with which the complex forms.
